Experimental data as given in publication PMC10539308, “Acetylation reprograms MITF target selectivity and residence time”.

Key:
[1] = target: Ac-K206 MITF DBD (Homo sapiens) (UniProt O75030); experiment: fluorescence anisotropy; details: 10 mM Tris/HCl pH 7.5, 300 mM NaCl, 0.01% Triton X-100, 0.1 mg/mL BSA, 25 C, 5 min, 1.33 nM dsDNA, quadratic fit, n=3
MITF DBD WT [2] = target: T1, MITF DBD WT (UniProt Q08874 287-403); experiment: fluorescence anisotropy; 10 mM Tris/HCl pH 7.5, 300 mM NaCl, 0.01% Triton X-100, 0.1 mg/mL BSA, 25 C, 5 min, 1.33 nM dsDNA; quadratic fit, n=3; details: protein: recombinant; tags: His (Ni-NTA purified; pETM-11); chain copies: 2; label: 3' fluorescein on strand 1; blunt (annealed with complementary oligonucleotide)
MITF DBD WT [3] = target: T1, MITF DBD WT; experiment: fluorescence anisotropy; moderately reduced vs CLEAR-box; 10 mM Tris/HCl pH 7.5, 300 mM NaCl, 0.01% Triton X-100, 0.1 mg/mL BSA, 25 C, 5 min, 1.33 nM dsDNA; quadratic fit, n=3; details: protein: recombinant; tags: His (Ni-NTA purified; pETM-11); chain copies: 2; label: 3' fluorescein on strand 1; blunt (annealed with complementary oligonucleotide)

Chain of Ac-K206 MITF DBD (Homo sapiens) (O75030 whole entry): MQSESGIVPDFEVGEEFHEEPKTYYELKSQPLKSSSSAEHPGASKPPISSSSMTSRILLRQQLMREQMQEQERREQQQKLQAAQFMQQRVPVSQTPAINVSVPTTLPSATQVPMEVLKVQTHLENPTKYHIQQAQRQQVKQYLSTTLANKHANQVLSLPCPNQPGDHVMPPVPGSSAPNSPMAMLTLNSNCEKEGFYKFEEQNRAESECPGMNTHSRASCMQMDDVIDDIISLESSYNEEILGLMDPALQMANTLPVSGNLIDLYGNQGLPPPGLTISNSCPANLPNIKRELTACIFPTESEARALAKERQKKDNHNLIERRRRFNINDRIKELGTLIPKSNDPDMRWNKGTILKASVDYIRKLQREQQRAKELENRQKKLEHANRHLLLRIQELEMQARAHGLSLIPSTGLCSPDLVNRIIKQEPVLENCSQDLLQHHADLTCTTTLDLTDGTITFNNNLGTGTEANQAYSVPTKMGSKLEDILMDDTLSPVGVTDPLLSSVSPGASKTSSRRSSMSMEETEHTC
T1 sequence (Q08874 287-403): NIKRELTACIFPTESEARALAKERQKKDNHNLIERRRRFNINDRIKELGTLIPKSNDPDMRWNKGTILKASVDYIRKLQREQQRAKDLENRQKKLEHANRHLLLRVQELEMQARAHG

Q: Which binding signal (fold reduced vs WT on CLEAR-box) [1] does the source give for “GAGATCACGTGATGAC (double strand) [CLEAR-box]” here?
A: Its binding signal (fold reduced vs WT on CLEAR-box) is 3.

Q: How did the binding signal ([1]; scale: fold further reduced vs Ac-K206 on CLEAR-box) turn out when “GAGATCATGTGATGAC (double strand) [TYR enhancer]” was run?
A: Its binding signal is 5.

Q: How did the binding signal (fold reduced vs Ac-K206 on CLEAR-box) [1] turn out when “GAGATCATGTGTTGAC (double strand) [M-box]” was run?
A: Its binding signal (fold reduced vs Ac-K206 on CLEAR-box) is 20.

B1: CLEAR-box (dsDNA)
DNA 1: GAGATCACGTGATGAC
DNA 2: GTCATCACGTGATCTC
Q: Does B1 bind (MITF DBD WT [2])?
A: Result: binds

B2: TYR enhancer (dsDNA)
DNA 1: GAGATCATGTGATGAC
DNA 2: GTCATCACATGATCTC
Q: Does B2 bind (MITF DBD WT [3])?
A: Result: binds
